Results on 2 molecules are retold here after patent publication US20190284293A1 (Bristol-Myers Squibb, published 2019).

Where “and” joins values, the source holds several entries; their conditions need not be identical. Identical values can stand only once.

For test [1], the target named is T1, human CD73 on cells (human, UniProt P21589 27-549).
T1 construct: Endogenous protein; also called endogenous CD73 on Calu6, NCI-H292, SK-MEL-24, human B and T cells
T1 sequence: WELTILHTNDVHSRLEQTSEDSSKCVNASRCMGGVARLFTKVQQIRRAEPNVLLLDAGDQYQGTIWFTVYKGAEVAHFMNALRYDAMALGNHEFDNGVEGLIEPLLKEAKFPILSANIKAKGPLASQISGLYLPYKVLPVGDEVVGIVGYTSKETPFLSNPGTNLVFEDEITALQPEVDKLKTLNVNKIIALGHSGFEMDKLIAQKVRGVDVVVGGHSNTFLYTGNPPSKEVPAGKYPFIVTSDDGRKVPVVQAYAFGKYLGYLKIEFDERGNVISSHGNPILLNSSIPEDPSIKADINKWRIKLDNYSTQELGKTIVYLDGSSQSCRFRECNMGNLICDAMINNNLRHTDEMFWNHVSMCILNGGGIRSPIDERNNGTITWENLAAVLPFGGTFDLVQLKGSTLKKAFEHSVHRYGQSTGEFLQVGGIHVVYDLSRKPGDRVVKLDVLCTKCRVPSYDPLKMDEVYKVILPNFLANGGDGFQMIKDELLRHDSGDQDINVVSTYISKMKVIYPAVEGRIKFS
The experiment in a line: flow cytometry, FITC-mAb, human T cells, donor D329. On the procedure: (§1) Binding of CD73.4 antibody to human B and T cells was also determined. Peripheral blood mononuclear cells (PBMC) were isolated with Lympholyte-H cell separation gradient media. […] Cells from both donors were pooled for the unstained and FMO (Fluorescence minus one) control samples.
For orientation: In flow cytometry, cells or beads pass a laser one at a time.

In test [2] the target is T1, human CD73 on cells. Nature of the test: flow cytometry, FITC-mAb, human T cells, donor D316. On the procedure: as §1
For test [3], the target named is T1, human CD73 on cells. The experiment in a line: flow cytometry, FITC-mAb, human B cells, donor D329. On the procedure: as §1
Test [4] deals with T1, human CD73 on cells. The experiment in a line: flow cytometry, Calu6 cells. On the procedure: (§2) Titration binding curves were produced with CD73 antibodies on Calu6 (CD73 endogenous expressors; human pulmonary adenocarcinoma cell line), DMS114 (CD73 negative; human small cell lung cancer cell line), CHO-cynoCD73 (cynoCD73-transfected) and CHO-K1 (cynoCD73 negative), cells using Alexa Fluor® 647 Goat Anti-Human IgG (H+L) as a secondary antibody, Invitrogen Cat#A-21445, using the following method: 100000 cells were plated in 100 uL PBS+2% FBS per well and blocked for 20 min. Using a U-bottom 96-deep well plate, volumes of antibody and PBS+2% FBS were combined as dictated by Table 12 below.
(§3) An 8-point serial dilution was performed by diluting a sixth of the volume (90 uL) into […], PBS+2% FBS. The cell plate was spun down for 5 minutes at 1500 rpm. 100 uL of diluted antibody was added per well of the plate. 100 uL PBS+2% FBS were added to all other wells. […] The plates were spun down at 1500 rpm for 5 min and washed in 200 uL PBS+2% FBS per well. The plates were washed again, resuspended in 200 uL 2% FBS in PBS per well and the samples were run.

Test [5] deals with T1, human CD73 on cells. Nature of the test: cell-based or functional assay.
The target in test [6] is T1, human CD73 on cells. The experiment in a line: cell-based or functional assay. This is another data set of the same source.
Test [7] addresses T2, rhCD73 bound to his-tag magnet beads (human, UniProt P21589 27-547, limits assumed).
T2 sequence: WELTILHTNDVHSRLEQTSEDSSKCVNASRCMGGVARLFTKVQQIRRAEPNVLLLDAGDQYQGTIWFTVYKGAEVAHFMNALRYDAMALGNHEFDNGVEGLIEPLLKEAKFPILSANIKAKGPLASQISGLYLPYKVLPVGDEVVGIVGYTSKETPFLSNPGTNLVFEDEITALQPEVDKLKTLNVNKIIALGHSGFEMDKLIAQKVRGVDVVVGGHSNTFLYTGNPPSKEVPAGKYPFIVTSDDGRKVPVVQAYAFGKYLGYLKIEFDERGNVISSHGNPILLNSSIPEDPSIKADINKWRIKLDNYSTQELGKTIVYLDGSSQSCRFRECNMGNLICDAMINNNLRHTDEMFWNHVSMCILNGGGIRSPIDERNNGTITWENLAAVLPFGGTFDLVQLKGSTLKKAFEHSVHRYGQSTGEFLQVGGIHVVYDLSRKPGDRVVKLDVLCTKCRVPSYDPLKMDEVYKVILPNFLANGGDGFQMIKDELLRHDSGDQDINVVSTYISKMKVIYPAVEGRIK
Nature of the test: cell-based or functional assay.

The target in test [8] is T1, human CD73 on cells. Nature of the test: binding titration on Calu6 cells, average of 2-6 experiments.
Test [9] deals with T3, cyno CD73, Sino Biological Inc Cat#90192-C08H, bound to his-tag magnet beads (cynomolgus, UniProt P21589 27-547 (human entry)).
T3 chain: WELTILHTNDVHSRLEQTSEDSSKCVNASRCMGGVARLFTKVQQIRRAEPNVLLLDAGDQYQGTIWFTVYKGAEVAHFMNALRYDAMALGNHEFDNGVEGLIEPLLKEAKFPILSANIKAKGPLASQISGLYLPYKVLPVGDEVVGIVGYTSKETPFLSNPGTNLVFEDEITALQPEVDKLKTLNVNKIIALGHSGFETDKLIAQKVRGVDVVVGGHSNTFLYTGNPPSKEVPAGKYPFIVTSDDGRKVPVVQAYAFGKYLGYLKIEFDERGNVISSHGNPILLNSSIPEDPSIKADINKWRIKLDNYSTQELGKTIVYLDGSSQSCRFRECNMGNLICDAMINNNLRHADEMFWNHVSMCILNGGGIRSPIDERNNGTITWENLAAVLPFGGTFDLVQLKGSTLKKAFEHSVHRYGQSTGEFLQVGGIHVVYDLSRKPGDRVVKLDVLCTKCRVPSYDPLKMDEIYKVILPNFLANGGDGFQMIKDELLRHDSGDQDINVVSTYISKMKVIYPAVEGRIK
Nature of the test: cell-based or functional assay.

Test [10] has as its target T4, cynomolgus CD73 on transfected CHO cells (cynomolgus, UniProt P21589 27-549 (human entry)).
T4 construct: also called CHO-cynoCD73; CHO-Cynomolgus CD73 transfectants
T4 chain: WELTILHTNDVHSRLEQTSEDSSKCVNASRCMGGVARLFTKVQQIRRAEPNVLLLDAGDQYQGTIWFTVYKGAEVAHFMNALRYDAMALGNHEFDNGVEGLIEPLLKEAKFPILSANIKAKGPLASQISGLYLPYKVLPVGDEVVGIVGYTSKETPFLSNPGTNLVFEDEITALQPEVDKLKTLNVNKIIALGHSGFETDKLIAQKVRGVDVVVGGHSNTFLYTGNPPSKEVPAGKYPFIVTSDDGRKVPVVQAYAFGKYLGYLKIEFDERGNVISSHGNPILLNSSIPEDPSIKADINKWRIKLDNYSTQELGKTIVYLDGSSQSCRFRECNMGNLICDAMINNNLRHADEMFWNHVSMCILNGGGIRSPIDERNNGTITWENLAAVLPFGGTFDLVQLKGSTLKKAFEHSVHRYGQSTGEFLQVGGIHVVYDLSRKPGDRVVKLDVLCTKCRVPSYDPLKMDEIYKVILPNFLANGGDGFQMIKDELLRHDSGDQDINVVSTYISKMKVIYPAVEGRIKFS
The experiment in a line: flow cytometry, CHO-cynoCD73 cells. On the procedure:
as §2, §3

In test [11] the target is T1, human CD73 on cells. The experiment in a line: flow cytometry, FITC-mAb, human B cells, donor D316. On the procedure: as §1
For test [12], the target named is T5, N-hCD73-his (N-terminal domain of human CD73, residues 26-336, His tag) (human, UniProt P21589 26-336).
T5 sequence: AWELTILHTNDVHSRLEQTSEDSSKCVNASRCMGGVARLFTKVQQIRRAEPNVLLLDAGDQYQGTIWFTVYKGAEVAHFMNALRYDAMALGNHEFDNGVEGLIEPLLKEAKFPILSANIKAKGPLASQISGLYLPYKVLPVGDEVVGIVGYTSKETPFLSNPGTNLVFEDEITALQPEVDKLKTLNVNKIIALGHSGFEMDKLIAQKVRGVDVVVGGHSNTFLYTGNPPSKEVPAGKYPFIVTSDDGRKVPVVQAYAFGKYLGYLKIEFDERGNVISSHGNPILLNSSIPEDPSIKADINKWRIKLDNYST
The experiment in a line: SPR, mAb captured on protein A. On the procedure: (§4) For these experiments, protein A (Pierce) was immobilized to a density of 3000-4000 RU on flow cells 1-4 of a CM5 sensor chip (GE Healthcare) using standard ethyl(dimethylaminopropyl) carbodiimide (EDC)/N-hydroxysuccinimide […] chemistry, with ethanolamine blocking, in a running buffer of 0.01 M HEPES pH 7.4, 0.15 M NaCl, 3 mM EDTA, 0.005% v/v tween 20. […] The running buffer for the kinetic experiments was 10 mM sodium phosphate, 130 mM sodium chloride, 0.05% tween 20, pH 7.1. The surfaces were regenerated after each cycle using two 30 s pulses of 10 mM glycine pH 1.5 at a flow rate of 30 μl/min. Sensogram data was double-referenced and then fitted to a 1:1 Langmuir model using Biacore T100 evaluation software v2.0.4, to determine the association rate constant (ka), the dissociation rate constant (kd), and the equilibrium dissociation constant (KD).
A general note: Surface plasmon resonance follows binding to a sensor surface in real time, without labels.

Test [13] addresses T5, N-hCD73-his (N-terminal domain of human …). Nature of the test: SPR, comparison of all IgG2 molecules. On the procedure:
as §4

The target of test [14] is T1, human CD73 on cells. Nature of the test: cell-based or functional assay. This is another data set of the same source.
For test [15], the target named is T1, human CD73 on cells. The experiment in a line: cell-based or functional assay. This is another data set of the same source.

B1: CD73.4-IgG2-C219S (antibody)
heavy: QVQLVESGGGVVQPGRSLRLSCAASGFTFSNYGMHWVRQAPGKGLEWVAVILYDGSNKYYPDSVKGRFTISRDNSKNTLYLQMNSLRAEDTAVYYCARGGSSWYPDSFDIWGQGTMVTVSSASTKGPSVFPLAPCSRSTSESTAALGCLVKDYFPEPVTVSWNSGALTSGVHTFPAVLQSSGLYSLSSVVTVPSSNFGTQTYTCNVDHKPSNTKVDKTVERKSCVECPPCPAPPVAGPSVFLFPPKPKDTLMISRTPEVTCVVVDVSHEDPEVQFNWYVDGVEVHNAKTKPREEQFNSTFRVVSVLTVVHQDWLNGKEYKCKVSNKGLPAPIEKTISKTKGQPREPQVYTLPPSREEMTKNQVSLTCLVKGFYPSDIAVEWESNGQPENNYKTTPPMLDSDGSFFLYSKLTVDKSRWQQGNVFSCSVMHEALHNHYTQKSLSLSPG
light: not shown
notes: also called CD73.4-IgG2CS; CD73.4-IgG2.3
For orientation: IC50 means the midpoint of a concentration-inhibition curve. A low value points to higher potency. The term EC50 denotes the concentration giving half of the maximal effect. A lower EC50 goes with a more potent agent. Regarding B1, the IC50 in test [1] amounted to 0.135 nM; in test [2], 0.18 nM; in [3], 0.0777 nM; in test [11], 0.159 nM. Moreover, the results for the EC50 in [4], in test [8] and in test [10] were 0.49 nM, 0.49 nM and 0.34 nM, respectively. Besides, the “CD73 Inhibition EC50 (nM), cAMP assay, Calu6” value in test [5] was 1.56 nM and 1.78 nM. Also, the “EC50 Calu6 inhibition” value in test [6] turned out to be 0.34 nM. Besides, the “EC50 (nM), inhibition of bead-bound human CD73 enzymatic activity” value in [7] is 2.72 nM. Also, the “EC50 (nM), enzymatic inhibition of cyno CD73 (bead-bound)” value in [9] stood at 3.66 nM.

B2: 11F11 (antibody, human IgG2, kappa, V domains shown)
VH: QVQLVESGGGVVQPGRSLRLSCATSGFTFSNYGMHWVRQAPGKGLEWVAVILYDGSNKYYPDSVKGRFTISRDNSKNTLYLQMNSLRAEDTAVYYCARGGSSWYPDSFDIWGQGTMVTVSS
VL: DIQMTQSPSSLSASVGDRVTITCRASQGISSWLAWYQQKPEKAPKSLIYAASSLQSGVPSRFSGSGSGTDFTLTISSLQPEDFATYYCQQYNSYPLTFGGGTKVEIKR
notes: Human IgG2; also called 11F11-2
Usually Kd stands for the concentration at which binding is half-saturated. As for B2, the equilibrium dissociation constant (Kd) in test [12] was 0.56 nM and 1.6 nM. This molecule also came in with a Kd in test [13] of 1.1 nM. In [14], the “EC50 (nM), high-content internalization assay, Calu6, 2 h” value amounted to 0.58 nM and the “Ymax, high-content internalization assay (percent of 100 nM 11F11)” value amounted to 98%. In test [15], the “Ymax, cAMP HTRF assay (percent of 100 nM 11F11 control)” value amounted to 76%. For the same molecule, the “EC50 SKMEL24 inhibition” value in test [6] is 3.15 nM. Further, in test [7], the “EC50 (nM), inhibition of bead-bound human CD73 enzymatic activity” value was 3.98 nM. In test [10], this molecule yielded an EC50 of 0.58 nM.
